The chains are these.
B1: HDV Ribozyme (parent)
chain: GGCCGGCAUGGUCCCAGCCUCCUCGCUGGCGCCGGCUGGGCAACAUUCCGAGGGGACCGUCCCCUCGGUAAUGGCGAAUGGGACCCA

Self-cleavage data for 32 variants are collected here from the RNAGym collection of RNA variant scans (doi:10.7554/elife.80360).

The series covers variants of B1. As to the kind of experiment: self-cleavage, relative activity (ratio to wild type); higher = more cleavage; co-transcriptional.
Take GGCCGGCAUGGUCCCAGCCUCCUCGCUGGCGCCGGCUGGGCAAAAUUCCGAGGGGACCGUCCCCUGGGUAAUGGCGAAUGGGACCCA: the self-cleavage came to 0.898. The value for GGCCGGCAUGGUCCCAGCCUCCUCGCUGGCGCCGGCUGGGCAAAAUUCCGAGGGGACCGUCCCCUAGGUAAUGGCGAAUGGGACCCA was 0.628; that for GGCCGGCAUGGUCCCAGCCUCCUCGCUGGCGCCGGCUGGGCAUCAUUCCGAGGGGACCGUCCCCUCGGAAAUGGCGAAUGGGACCCA was 0.449; that for GGCCGGCAUGGUCCCAGCCUCCUCGCUGGCGCCGGCUGGGCAUCAUUCCGAGGGGACCGUCCCCUCGGGAAUGGCGAAUGGGACCCA was 0.199. Consider GGCCGGCAUGGUCCCAGCCUCCUCGCUGGCGCCGGCUGGGCAAAAUUCCGAGGGGACCGUCCCCUCGGUAUUGGCGAAUGGGACCCA, for which the self-cleavage worked out at 0.81.

As to GGCCGGCAUGGUCCCAGCCUCCUCGCUGGCGCCGGCUGGGCAAAAUUCCGAGGGGCCCGUCCCCUCGGUAAUGGCGAAUGGGACCCA, the self-cleavage worked out at 0.853. The figure for GGCCGGCAUGGUCCCAGCCUCCUCGCUGGCGCCGGCUGGGCAAAAUUCCGAGGGGACCGUCCCCUCGGUAAUGGCGAAUGGGACCCA is 0.764; for GGCCGGCAUGGUCCCAGCCUCCUCGCUGGCGCCGGCUGGGCAAAAUUCCGAGGGGACCGUCCCCUCGGUAAUGGCGAAUGGGACCGA it is 0.787; for GGCCGGCAUGGUCCCAGCCUCCUCGCUGGCGCCGGCUGGGCAUCAUACCGAGGGGACCGUCCCCUCGGUAAUGGCGAAUGGGACCCA it is 0.271. The figure for GGCCGGCAUGGUCCCAGCCUCCUCGCUGGCGCCGGCUGGGCAUCAUCCCGAGGGGACCGUCCCCUCGGUAAUGGCGAAUGGGACCCA is 0.554; for GGCCGGCAUGGUCCCAGCCUCCUCGCUGGCGCCGGCUGGGCAAAAUUCCGAGGCGACCGUCCCCUCGGUAAUGGCGAAUGGGACCCA it is 0.618.

For GGCCGGCAUGGUCCCAGCCUCCUCGCUGGCGCCGGCUGGGCAAAAUUCCGAGGUGACCGUCCCCUCGGUAAUGGCGAAUGGGACCCA, the self-cleavage was 0.794.

For GGCCGGCAUGGUCCCAGCCUCCUCGCUGGCGCCGGCUGGGCAAAAUUCCGAGGAGACCGUCCCCUCGGUAAUGGCGAAUGGGACCCA, the self-cleavage came out at 0.759.

With GGCCGGCAUGGUCCCAGCCUCCUCGCUGGCGCCGGCUGGGCAAAAUUCCGAGAGGACCGUCCCCUCGGUAAUGGCGAAUGGGACCCA, the self-cleavage was 0.831. The figure for GGCCGGCAUGGUCCCAGCCUCCUCGCUGGCGCCGGCUGGGCAAAAUUCCGAGUGGACCGUCCCCUCGGUAAUGGCGAAUGGGACCCA is 0.929. The value for GGCCGGCAUGGUCCCAGCCUCCUCGCUGGCGCCGGCUGGGCAAAAUUCCGAGGGGACCGUCCCCUCGGUAAUGGCGGAUGGGACCCA was 0.396; that for GGCCGGCAUGGUCCCAGCCUCCUCGCUGGCGCCGGCUGGGCAAAAUUCCGAGGGGACCGUCCCCUCGGUAAUGGCGCAUGGGACCCA was 0.128; that for GGCCGGCAUGGUCCCAGCCUCCUCGCUGGCGCCGGCUGGGCAAAAUUCCGAGGGGACCGUCCCCUCGGUAAUGGCGUAUGGGACCCA was 0.203. The value for GGCCGGCAUGGUCCCAGCCUCCUCGCUGGCGCCGGCUGGGCAAAAUUCCGAGGGGACCGUCCCCUCCGUAAUGGCGAAUGGGACCCA was 0.712; that for GGCCGGCAUGGUCCCAGCCUCCUCGCUGGCGCCGGCUGGGCAAAAUUCCGAGGGGAGCGUCCCCUCGGUAAUGGCGAAUGGGACCCA was 0.684. Regarding GGCCGGCAUGGUCCCAGCCUCCUCGCUGGCGCCGGCUGGGCAAAAUUCCGAGGGGAACGUCCCCUCGGUAAUGGCGAAUGGGACCCA, the self-cleavage stood at 0.752. The value for GGCCGGCAUGGUCCCAGCCUCCUCGCUGGCGCCGGCUGGGCAUCAUUCCGAGGGGACCGGCCCCUCGGUAAUGGCGAAUGGGACCCA was 0.394; that for GGCCGGCAUGGUCCCAGCCUCCUCGCUGGCGCCGGCUGGGCAUCAUUCCGAGGGGACCGCCCCCUCGGUAAUGGCGAAUGGGACCCA was 0.678; that for GGCCGGCAUGGUCCCAGCCUCCUCGCUGGCGCCGGCUGGGCAAAAUUCCGAGGGGACCGUUCCCUCGGUAAUGGCGAAUGGGACCCA was 0.758.

Consider GGCCGGCAUGGUCCCAGCCUCCUCGCUGGCGCCGGCUGGGCAAAAUUCCGAGGGGACCGUGCCCUCGGUAAUGGCGAAUGGGACCCA, for which the self-cleavage was determined as 0.608. The value for GGCCGGCAUGGUCCCAGCCUCCUCGCUGGCGCCGGCUGGGCAAAAUUCCGAGGGGACCGUACCCUCGGUAAUGGCGAAUGGGACCCA was 0.618; that for GGCCGGCAUGGUCCCAGCCUCCUCGCUGGCGCCGGCUGGGCAAAAUUCAGAGGGGACCGUCCCCUCGGUAAUGGCGAAUGGGACCCA was 0.554; that for GGCCGGCAUGGUCCCAGCCUCCUCGCUGGCGCCGGCUGGGCAAAAUUCGGAGGGGACCGUCCCCUCGGUAAUGGCGAAUGGGACCCA was 0.511. The figure for GGCCGGCAUGGUCCCAGCCUCCUCGCUGGCGCCGGCUGGGCAAAAUUCUGAGGGGACCGUCCCCUCGGUAAUGGCGAAUGGGACCCA is 0.462. The figure for GGCCGGCAUGGUCCCAGCCUCCUCGCUGGCGCCGGCUGGGCAAAAUUGCGAGGGGACCGUCCCCUCGGUAAUGGCGAAUGGGACCCA is 0.594. Consider GGCCGGCAUGGUCCCAGCCUCCUCGCUGGCGCCGGCUGGGCAAAAUUUCGAGGGGACCGUCCCCUCGGUAAUGGCGAAUGGGACCCA, for which the self-cleavage came to 0.692.

As to GGCCGGCAUGGUCCCAGCCUCCUCGCUGGCGCCGGCUGGGCAAAAUUCCGAGGGGACCGUCCCCUCGGUAAUGGGGAAUGGGACCCA, the self-cleavage was determined as 0.369.
